Starred links: 1 amine or outer side, 2 acyl side, 3 side chain; linkers in the order of their positions; H or OH if unused. Non-standard residues stand in square brackets, D forms with d. Groups on a side chain read outwards from the residue. Primed or numbered codes have the meaning given here. No end group written: not given here. *: point of attachment. γGlu = O=C(O)[C@H](CCC(=O)[*:2])N[*:1]; Palmitoyl = CCCCCCCCCCCCCCCC(=O)*; αMeF = C[C@](N)(Cc1ccccc1)C(=O)O; αMeK = C[C@](N)(CCCCN)C(=O)O; Lauroyl = CCCCCCCCCCCC(=O)*; αMeS = C[C@](N)(CO)C(=O)O; PEG2′ = not defined here; Aib = CC(C)(N)C(=O)O
Tests used:
Test in all cases: cell-based or functional assay
[1] = target: GLP-1 receptor (GLP-1R), primary cAMP assay (human, UniProt P43220 24-463)
[2] = target: glucagon receptor (GCGR), primary cAMP assay (human, UniProt P47871 26-477)
Sequence of glucagon receptor (GCGR), primary cAMP assay (P47871 26-477): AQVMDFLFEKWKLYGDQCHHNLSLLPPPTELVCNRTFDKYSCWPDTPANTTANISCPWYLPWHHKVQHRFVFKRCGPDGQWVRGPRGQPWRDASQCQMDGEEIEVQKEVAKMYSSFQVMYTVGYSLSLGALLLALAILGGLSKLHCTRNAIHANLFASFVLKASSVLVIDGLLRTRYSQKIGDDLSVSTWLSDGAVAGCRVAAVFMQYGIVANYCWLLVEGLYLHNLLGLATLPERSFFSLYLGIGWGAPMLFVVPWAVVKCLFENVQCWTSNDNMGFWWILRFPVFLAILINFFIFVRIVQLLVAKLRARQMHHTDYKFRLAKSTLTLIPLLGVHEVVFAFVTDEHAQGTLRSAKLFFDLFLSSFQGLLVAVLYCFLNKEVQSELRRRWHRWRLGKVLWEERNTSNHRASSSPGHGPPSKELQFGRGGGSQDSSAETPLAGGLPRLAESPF

[3] = target: T1, glucose-dependent insulinotropic peptide (gastric inhibitory polypeptide) receptor (GIPR), primary cAMP assay (human, UniProt P48546 22-466)
T1 sequence (looked up): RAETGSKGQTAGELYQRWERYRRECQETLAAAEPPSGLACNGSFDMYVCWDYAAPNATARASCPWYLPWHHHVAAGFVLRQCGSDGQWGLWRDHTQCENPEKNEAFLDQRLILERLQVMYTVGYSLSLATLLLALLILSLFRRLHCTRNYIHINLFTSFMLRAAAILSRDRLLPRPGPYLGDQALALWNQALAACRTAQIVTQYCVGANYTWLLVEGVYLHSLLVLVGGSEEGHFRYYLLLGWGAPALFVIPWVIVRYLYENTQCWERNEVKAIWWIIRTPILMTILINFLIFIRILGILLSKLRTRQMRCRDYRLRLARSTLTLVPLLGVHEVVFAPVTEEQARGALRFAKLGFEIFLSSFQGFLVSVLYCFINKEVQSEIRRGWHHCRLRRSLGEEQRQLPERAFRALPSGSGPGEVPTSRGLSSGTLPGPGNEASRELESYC

[4] = target: T2, GLP-1R in the INS1e assay (UniProt P32301 22-463, limits assumed)
T2 sequence (looked up): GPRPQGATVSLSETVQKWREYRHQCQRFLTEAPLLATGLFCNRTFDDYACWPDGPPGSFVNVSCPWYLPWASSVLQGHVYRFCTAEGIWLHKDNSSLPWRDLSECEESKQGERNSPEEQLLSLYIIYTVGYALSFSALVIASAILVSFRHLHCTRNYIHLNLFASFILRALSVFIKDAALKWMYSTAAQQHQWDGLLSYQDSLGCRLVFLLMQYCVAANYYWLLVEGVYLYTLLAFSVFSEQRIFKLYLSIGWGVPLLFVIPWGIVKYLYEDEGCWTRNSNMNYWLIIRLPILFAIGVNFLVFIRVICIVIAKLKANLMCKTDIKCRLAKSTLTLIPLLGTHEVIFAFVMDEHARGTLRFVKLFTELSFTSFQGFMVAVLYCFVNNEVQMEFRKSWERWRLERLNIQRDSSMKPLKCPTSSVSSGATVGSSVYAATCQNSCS

Row | Binder | Primary assay EC50 (cAMP) Mean [1] | Primary assay EC50 (cAMP), n1 [1] | Primary assay EC50 (cAMP), n2 [1] | Primary assay EC50 (cAMP), n1 [2] | Primary assay EC50 (cAMP), n2 [2] | Primary assay EC50 (cAMP), n1 [3] | Primary assay EC50 (cAMP), n2 [3] | INS1e assay EC50 (cAMP) Mean [4] | INS1e assay EC50 (cAMP) n1 [4] | INS1e assay EC50 (cAMP) n2 [4]
1 | H[Aib]EGTFTSDVSK([PEG2′-PEG2′-γGlu-Lauroyl])FLEGEAAEEFIK([PEG2′-PEG2′-γGlu-Lauroyl])WVVEGG-NH2 [SEQ ID NO: 237] | 0.0209 nM | 0.0195 nM | 0.0223 nM | 22.3 nM | 22.3 nM | 22.3 nM | 22.3 nM | 19.3 nM | 14.3 nM | 24.3 nM
2 | H[Aib]EGS[αMeF]TSDV[αMeS]SYK([PEG2′-PEG2′-γGlu-Palmitoyl])EGEAA[αMeK]EFIK([PEG2′-PEG2′-γGlu-Palmitoyl])WVVEGG-NH2 [SEQ ID NO: 271] | 0.821 nM | 0.891 nM | 0.75 nM | 21.4 nM | 21.4 nM | 21.4 nM | 21.4 nM | – | – | –
3 | H[Aib]EGS[αMeF]TSDVSK([PEG2′-PEG2′-γGlu-Palmitoyl])YLEGEAA[αMeK]EFIAWK([PEG2′-PEG2′-γGlu-Palmitoyl])VEGG-NH2 [SEQ ID NO: 255] | 0.463 nM | 0.532 nM | 0.393 nM | 21.5 nM | 21.5 nM | 21.5 nM | 21.5 nM | – | – | –
4 | H[Aib]EGS[αMeF]TSDK([PEG2′-PEG2′-γGlu-Palmitoyl])SSYLEGEAA[αMeK]EFIK([PEG2′-PEG2′-γGlu-Palmitoyl])WVVEGG-NH2 [SEQ ID NO: 259] | 0.313 nM | 0.339 nM | 0.287 nM | 21.4 nM | 21.4 nM | 21.4 nM | 21.4 nM | – | – | –
5 | H[Aib]EGS[αMeF]TSDV[αMeS]SYK([PEG2′-PEG2′-γGlu-Palmitoyl])EGEAA[αMeK]EFIAK([PEG2′-PEG2′-γGlu-Palmitoyl])VVEGG-NH2 [SEQ ID NO: 272] | 0.335 nM | 0.339 nM | 0.331 nM | 21.9 nM | 21.9 nM | 21.9 nM | 21.9 nM | – | – | –
6 | H[Aib]EGS[αMeF]TSDVSK([PEG2′-PEG2′-γGlu-Palmitoyl])YLEGEAA[αMeK]EFIAK([PEG2′-PEG2′-γGlu-Palmitoyl])VVEGG-NH2 [SEQ ID NO: 254] | 0.205 nM | 0.223 nM | 0.186 nM | 21.9 nM | 21.9 nM | 21.9 nM | 21.9 nM | – | – | –
7 | H[Aib]EGS[αMeF]TSDK([PEG2′-PEG2′-γGlu-Palmitoyl])SSYLEGEAA[αMeK]EFIAWK([PEG2′-PEG2′-γGlu-Palmitoyl])VEGG-NH2 [SEQ ID NO: 261] | 0.418 nM | 0.414 nM | 0.422 nM | 23 nM | 23 nM | 23 nM | 23 nM | – | – | –
